± gives the uncertainty stated by the source.

The series is described as follows: amyloid nucleation score (Sup35N fusion, yeast selection) (log enrichment); library NNK2; higher = more nucleation; inactive = no reads after selection. The gist of the method: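 The nucleation score is the DiMSum log enrichment of output over input reads, centred on the mode score of non-aggregating sequences. Only sequences with 100 or more input reads were scored, using Illumina sequencing of input and output plasmid inserts. Psi-negative yeast expressing Sup35N fused to peptides of 20 random codons were induced 24 hours with 100 μM copper sulfate and grown 7 days at 30°C on medium lacking adenine and uracil.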
REQYPYINQHRP returned an amyloid nucleation score of 2.52 ± 0.14. As for RERDNVMDIVGSAMRDCCQF, the figure is 0.282 ± 0.25.

Turning to RESTTRMSAGNVYRVTHKHS, the amyloid nucleation score came to 0.224 ± 0.4. As for REWWYKKALPQCENTIGVGQ, the figure is 0.721 ± 0.47; as for RFCWICCHVQFFYELHITHA, “inactive”; as for RFFYYVVTLDAFNTFHKHLG, -1.56 ± 1.1. On to RFGNCGVTMTRSAGRFRAIS, for which the amyloid nucleation score was -0.169 ± 0.29.

With RFGVSVTGDTSRCSGCGGAH, the amyloid nucleation score is 4.01 ± 0.089. Regarding RFHRYTILLLLTPEWTEHAI, the amyloid nucleation score came to 0.52 ± 0.57.

On to RFIND, for which the amyloid nucleation score is -0.703 ± 1.

As for RFKLEYHEEG, the amyloid nucleation score was found to be 2.81 ± 0.19. Regarding RFNWFFRHV, the amyloid nucleation score was found to be 0.524 ± 0.81. As for RFNYEP, the figure is 0.262 ± 0.46. As for RFRFGAVNLV, the figure is 0.849 ± 0.49; as for RFRHGNDYGSYYFCGLLGSM, 0.264 ± 0.46.

On to RFRLWIVCG, for which the amyloid nucleation score is -0.253 ± 0.26. To RFTESYSL belongs -0.935 ± 0.48. To RGLAES belongs -0.2 ± 0.24. As for RGNMESLWQNRKGRCSLNHG, the entry is “inactive”; as for RGRCFWLEFTFISWLSNDVA, “inactive”.

In turn, RGRHGASMELESVDKRTVSR registered an amyloid nucleation score of 0.656 ± 0.34. As for RGRLMCSYLILNFCRSG, the figure is 3.04 ± 0.12. To RGSGKCYRAGFMIAIVTHPL belongs 1.5 ± 0.41. As for RGSRNNQVWGQSFFMPQWTA, the figure is -0.405 ± 0.41. RGVFAMLTVSYGNS yielded an amyloid nucleation score of 5.483 ± 0.043.

RGWLRFMEQNGTYSEYDVDL returned an amyloid nucleation score of 12.82 ± 0.022. Take RGYVRLSHTGTTRHHP: the amyloid nucleation score entry is “inactive”. As for RHLDSDPRIRKPHFGDPVNT, the figure is -0.144 ± 0.55; as for RHLISSLRELHTTLNLHRPE, 0.101 ± 0.76; as for RHLVIYRLVNCKSARLSRTL, “inactive”. As for RHQYETKYRPYRVIPLQRMV, the figure is 0.277 ± 0.46.

Consider RHSLYVFY, for which the amyloid nucleation score worked out at 1.69 ± 0.33.

RHTSNTIIDELFLDSMGWHN showed an amyloid nucleation score of 9.016 ± 0.05. In turn, RHVMSR came in with an amyloid nucleation score of 0.419 ± 0.23.

With RIFLYND, the amyloid nucleation score result is “inactive”. In turn, RIFQLSTSGN returned an amyloid nucleation score of 0.072 ± 1.1. As for RIFRYNDTVLCVLLGTNVGD, the figure is -0.418 ± 1.1; as for RIISCRN, 0.331 ± 0.43; as for RILTVYVPV, 1.19 ± 0.39. To RILYLTTDGRKLM belongs “inactive”; to RIMIEFWPRFSWSI, 0.744 ± 0.14.

RIMIIGKYVSRMVFGDSFWG yielded an amyloid nucleation score of 6.002 ± 0.049. As for RIPHHWMSVGLVIAPRLKSV, the figure is -0.365 ± 0.63; as for RIVIFFFTCIYPIWIRNTWP, -1.18 ± 1.1; as for RIVVYMSLCQCL, 8.609 ± 0.076.

Regarding RIWYY, the amyloid nucleation score result is “inactive”. As for RIYFVEFMESWWGVGSLKEV, the figure is 3.51 ± 0.094; as for RIYLVAIYL, 3.49 ± 0.067; as for RKCLGLRSYATTFRVDQHSC, 0.266 ± 0.3. As for RKGSNDYPFWPAVVWHPLPA, the amyloid nucleation score turned out to be 0.753 ± 0.4. As for RKISMTN, the figure is -0.573 ± 0.3. To RKRVVSQEPCL belongs -0.996 ± 0.78; to RKVFLRLCLLVWLNG, -0.292 ± 0.3; to RKVLWKSDTSSLLNEWSIAH, -0.178 ± 0.49.

As for RKVPVR, the amyloid nucleation score entry is “inactive”. As for RLELVTVVSVSMHDLRHRRR, the figure is 4.75 ± 0.071; as for RLHKTSNITTWIAHPLHNR, -0.038 ± 0.65. On to RLIYCVVGRCCNCSFYFTRM, for which the amyloid nucleation score amounted to 2.75 ± 0.09.

The substance RLIYLCGSRGPNTEFVRVKR yielded an amyloid nucleation score of 3.21 ± 0.055. As for RLLNPRVSKVWICAHNARDL, the figure is 1.1 ± 0.24; as for RLLTSHD, 4.12 ± 0.089.

RLMQSVMCRRDLLL yielded an amyloid nucleation score of 0.883 ± 0.47. As for RLNALLVWFVRVSMALVRES, the amyloid nucleation score was -0.661 ± 1.1. In the case of RLRKFESLLICDRISIIVRY, the amyloid nucleation score is 0.621 ± 0.56. Regarding RLSFNWSLKSYMLPLESSVV, the amyloid nucleation score was -0.079 ± 0.55. RLTVRWAYMSLLTVGQGGIM returned an amyloid nucleation score of 0.21 ± 1.

RLTVTGVALVFKGFAAEYGL displayed an amyloid nucleation score of 5.81 ± 0.066. As for RLVFVFITDG, the figure is 2.96 ± 0.054; as for RLYCQRFPRFENITIWELLL, -1.71 ± 0.54; as for RMGCLFCRESNWILSFYSVS, 5.87 ± 0.074. To RMLADGVTLVPCWALQL belongs 0.57 ± 0.43.

The substance RMRLPPFPIDWSDAYLFWHS registered an amyloid nucleation score of 1.28 ± 0.38. To RMVKLDDNVKYYVKSVEGYE belongs 0.276 ± 0.6; to RMVLSGNLLQRNRNYPNQRM, 2.03 ± 0.079; to RMVSPSPMAQNKLGYATTLG, 0.02 ± 0.49.

In the case of RNAEA, the amyloid nucleation score is -0.5 ± 0.63. To RNGVLAIGLY belongs -0.759 ± 0.63; to RNHFLLCFLRCNEEYAQVRG, 3.69 ± 0.059; to RNITVTIFCLTAHRA, 9.317 ± 0.054. As for RNLTFYKTSPVGRC, the figure is 0.712 ± 0.4; as for RNSIFNG, -0.796 ± 0.62. Take RNWPVIVVWAKTGCQCSFLM: the amyloid nucleation score is -0.544 ± 0.36. As for RPLFEFWPKPPL, the figure is 2.17 ± 0.14; as for RPNSSIVLLYPFKMRPFES, “inactive”.

As to RPTAIPAHLIVFSEFCEAEW, the amyloid nucleation score stood at 0.739 ± 0.45. As for RPVCKFL, the figure is 0.275 ± 0.5; as for RQARRRRTSRQHEKGV, 1.49 ± 0.16.

Turning to RQLAQQYAHAFGYIFHSLYL, the amyloid nucleation score is 1.19 ± 0.4.

As to RQMDHYQRGFLIIYCQLTDK, the amyloid nucleation score entry is “inactive”.

On to RRAENLMEFGLIRAFY, for which the amyloid nucleation score is -0.007 ± 0.63. As for RRDNPWLSHVIW, the figure is 1.06 ± 0.33; as for RREDKLICRFIDVNLEVDW, 2.72 ± 0.066; as for RRFCSCQLSKPLIFPMVLYW, -0.454 ± 0.53. As for RRGNLGDAMNNMARFCSYSF, the entry is “inactive”.

As to RRKVCYTSQVRRLVNQRNVS, the amyloid nucleation score is -1.11 ± 0.34. RRLFSVKIAYLCDT yielded an amyloid nucleation score of 2.63 ± 0.2. As for RRLLLLGSFWGSVHQHVTSS, the figure is -0.207 ± 0.4. As for RRLSGSFLRDYVNPWIQRSS, the figure is -0.277 ± 0.42; as for RRMMRP, 2.2 ± 0.4. As for RRMNHLPFCCKRYRTSRPKF, the figure is 0.222 ± 0.64; as for RRMVMVSANVSLIEQHYCRN, 5.552 ± 0.042. On to RRNNTGKHFWDWETREGFSM, for which the amyloid nucleation score was -0.931 ± 1.1.

As to RRPFVRRLFVLKNMFNSLGR, the amyloid nucleation score was -0.707 ± 1.1. As for RRPKHYMAVMSESVGLQCRL, the figure is 0.173 ± 0.37; as for RRRGVLLTRPLKRQLVK, “inactive”.

With RRTVQWVWAVYIV, the amyloid nucleation score is -0.803 ± 0.45.

Regarding RRVGRYESWRNFSNEI, the amyloid nucleation score is -0.835 ± 0.27.

The substance RRVTRKVVGPRNYAYEKYFW showed an amyloid nucleation score of 3.28 ± 0.06.

Regarding RRWEL, the amyloid nucleation score amounted to 0.687 ± 0.34. To RSCATFIFVMS belongs 4.98 ± 0.073; to RSEDGRGGSKGQIIRVVMNW, 4.76 ± 0.062.

For RSENSILHVLHRFVA, the amyloid nucleation score is -0.559 ± 0.64. For RSFGLSDPIKTTGKTSV, the amyloid nucleation score result was “inactive”. RSFLLVLAELCFT had an amyloid nucleation score of 4.22 ± 0.12.

For the substance RSGLLDMS, the amyloid nucleation score was -0.129 ± 1.1. As for RSGNRGPVARYVGYERCMGK, the figure is 0.629 ± 0.56; as for RSLFKLTENCCIIVSWASDN, 8.848 ± 0.057. As for RSLIFLNWGYSV, the figure is 3.59 ± 0.056; as for RSRSGVLVERFMAVSWDAWH, 5.691 ± 0.051. As for RSSGSSWRLNYLDEDTVVAR, the figure is 1 ± 0.4; as for RSSLIIALCWFR, 5.54 ± 0.059; as for RSTPLKYNLRFIPLSHGRRV, -0.431 ± 0.48. As to RSVALARLMFVPLTLDSV, the amyloid nucleation score worked out at 0.264 ± 0.2. As for RSVSGMVWE, the figure is 0.21 ± 0.74; as for RSVSNDKYVFWFLRLVDVKA, 0.225 ± 0.26. To RSVSTTHRCRTTLKTSNYCL belongs 0.778 ± 0.67.

In the case of RSWVLLSYAPFHCS, the amyloid nucleation score turned out to be 0.482 ± 0.19. Regarding RSYFSDFH, the amyloid nucleation score entry is “inactive”.

In turn, RSYQMSGPIALRKWEEEWAE showed an amyloid nucleation score of 0.611 ± 0.46. As for RTAINESCQDEMG, the figure is 5.44 ± 0.073; as for RTALKYPVSYSRFGSFADES, -0.73 ± 0.41; as for RTEGRGCRAAWSK, 0.101 ± 0.76. To RTLPFWWLNLFWFLNNMDTF belongs -1.8 ± 1.1; to RTMWSIFHYSTVVSRVSTMA, 1.23 ± 0.45.

Turning to RTSCVYSHWQHNIERLLGRW, the amyloid nucleation score result is “inactive”. The substance RTWCDGGCPV returned an amyloid nucleation score of 0.653 ± 0.81. For the substance RTYVGRPENCKSWSYPMLMQ, the amyloid nucleation score amounted to 4.805 ± 0.039. Consider RVIHKFLYK, for which the amyloid nucleation score was determined as 6.288 ± 0.06. To RVISFIYWSVTGDSDCLLWC belongs 4.24 ± 0.067.

Substance RVKRRMSFVVAVAQVMGLVG returned an amyloid nucleation score of 0.475 ± 0.23. As for RVLLHSLRKYLIHDCDVYRA, the figure is -0.474 ± 0.55.

Source of the values: the supplement of paper PMC12042874.
